Assay results published in ChEMBL document CHEMBL1156444, “Structure-based design, synthesis, evaluation, and crystal structures of transition state analogue inhibitors of inosine monophosphate cyclohydrolase” (J Biol Chem, 2007).

Substrate: NC(=O)c1ncn([C@@H]2O[C@H](COP(=O)(O)O)[C@@H](O)[C@H]2O)c1N
Details: Homo sapiens
Description: Activity of human wild-type ATIC assessed as IMPCH activity

B1: Bifunctional purine biosynthesis protein ATIC (Homo sapiens), P31939 (protein)
chain: MAPGQLALFSVSDKTGLVEFARNLTALGLNLVASGGTAKALRDAGLAVRDVSELTGFPEMLGGRVKTLHPAVHAGILARNIPEDNADMARLDFNLIRVVACNLYPFVKTVASPGVTVEEAVEQIDIGGVTLLRAAAKNHARVTVVCEPEDYVVVSTEMQSSESKDTSLETRRQLALKAFTHTAQYDEAISDYFRKQYSKGVSQMPLRYGMNPHQTPAQLYTLQPKLPITVLNGAPGFINLCDALNAWQLVKELKEALGIPAAASFKHVSPAGAAVGIPLSEDEAKVCMVYDLYKTLTPISAAYARARGADRMSSFGDFVALSDVCDVPTAKIISREVSDGIIAPGYEEEALTILSKKKNGNYCVLQMDQSYKPDENEVRTLFGLHLSQKRNNGVVDKSLFSNVVTKNKDLPESALRDLIVATIAVKYTQSNSVCYAKNGQVIGIGAGQQSRIHCTRLAGDKANYWWLRHHPQVLSMKFKTGVKRAEISNAIDQYVTGTIGEDEDLIKWKALFEEVPELLTEAEKKEWVEKLTEVSISSDAFFPFRDNVDRAKRSGVAYIAAPSGSAADKVVIEACDELGIILAHTNLRLFHH
  Km: 1.9 µM
